Laboratory results published in article PMC8779334, “Synthesis, Physicochemical and Biological Study of Gallium-68- and Lutetium-177-Labeled VEGF-A165/NRP-1 Complex Inhibitors Based on Peptide A7R and Branched Peptidomimetic” (Pharmaceutics, 2022).
Read-outs that look alike come from different tables or passages of the source. Where a SMILES comes first, the peptide text is derived from it. Where no end group is shown, it is not given here. Side-chain parts run from the residue outwards. [ ]: non-standard residue; d: D form. The star is where a group is joined. DOTA = O=C(O)CN1CCN(CC(=O)O)CCN(CC(=O)*)CCN(CC(=O)O)CC1; hArg = N=C(N)NCCCC[C@H](N)C(=O)O; Dab = NCC[C@H](N)C(=O)O; Ahx = NCCCCCC(=O)O

How the values were obtained:
[1] = type: in vitro ADME; conditions: human, serum
Protocol: Stability studies of the ^68Ga-1, ^177Lu-1, ^68Ga-2, and ^177Lu-2 radioconjugates in human serum (HS) were performed according to the following procedure: into a vial containing 900 µL of HS we added 100 µL of the tested radioconjugate and incubated the mixture at 37 °C. After the specified incubation times (10 min–4.5 h for ^68Ga-radiocompounds and 10 min–4 days for ^177Lu-radiocompounds), we withdrew the aliquots, mixed with ethanol to precipitate the proteins, and centrifuged (14,000 rpm, 5–15 min) to separate the protein compounds from the supernatant. The gamma radioactivity of the obtained precipitate and supernatant was then measured using a Wizard detector. Using the formula below, the amount of radioconjugate remaining in the supernatant (and also bound by serum protein components) was calculated. ∑ liquid phase radioactivity/∑ liquid phase radioactivity+∑ percipitate radioactivity ×100% We also analyzed the supernatant at each time by RP-HPLC in System 3 with gamma detection for ^68Ga-1 and ^177Lu-1 and System 4 with gamma detection for ^68Ga-2 and ^177Lu-2 to check whether the studied radiocompound remained unchanged during the experiment.

[2] = type: physicochemical; conditions: pH 7.4
Protocol: The lipophilicity (L) of tested radiocompounds, defined as the decimal logarithm (logP) of the partition coefficient (P) of the compound between the two immiscible phases, was determined in the system PBS solution (aqueous phase, polar phase, pH 7.4) and n-octanol (organic, non-polar phase) according to the following formula: L=logP=logAo/Aw where Ao —organic phase radioactivity; Aw —aqueous phase radioactivity. Radioactivity of both phases, resulting from the concentration of the tested radiocompound in each of them, was determined by measuring the gamma radiation with a Wizard counter in three independent experiments. Before starting the research, both liquid phases were saturated with each other to avoid errors resulting from the mutual solubility of both liquids. The partition coefficient (P) result is shown as the mean ± SD. After the end of the experiment, we performed RP-HPLC analysis of the aqueous phase to confirm the tested radioconjugate remained intact during the experiment.

[3] = cited from earlier work
VEGF-A165/NRP-1 complex = conditions: read-out: IC50 (VEGF-A165 binding with NRP-1); cited from earlier work

Compound	logP ± SD [2]	IC50 (VEGF-A165/NRP-1 complex) [µM]	other results
CC(C)C[C@H](NC(=O)[C@H](Cc1c[nH]c2ccccc12)NC(=O)[C@@H](NC(=O)[C@H](C)NC(=O)CCCCCNC(=O)CN1CCN(CC(=O)O)CCN(CC(=O)O)CCN(CC(=O)O)CC1)[C@@H](C)O)C(=O)N1CCC[C@H]1C(=O)N1CCC[C@H]1C(=O)N[C@@H](CCCNC(=N)N)C(=O)O [^177Lu-1, [^177Lu]Lu-DOTA-Ahx-A7R, metal not drawn] ({DOTA-Ahx}-ATWLPPR-OH)	−3.40 ± 0.14		radioconjugate remaining in HS sample (in words) ([1]; 96 h): still visible
N=C(N)NCCCC[C@H](N)C(=O)NCCCC[C@H](N)C(=O)N[C@@H](CCNC(=O)CCCCCNC(=O)CN1CCN(CC(=O)O)CCN(CC(=O)O)CCN(CC(=O)O)CC1)C(=O)N1CCC[C@H]1C(=O)N[C@@H](CCCNC(=N)N)C(=O)O [^177Lu-2, [^177Lu]Lys(hArg)-Dab(Ahx-DOTA-Lu)-Pro-Arg, metal not drawn] (H-K(hArg)[Dab]([Ahx-DOTA])PR-OH)	−3.75 ± 0.08		radioconjugate remaining in HS sample (in words) ([1]; 24 h): only traces of radioconjugate were present
Lys(hArg)-Dab-Pro-Arg		0.2	stability half-life in human serum [3]: ~48 h; half-life ([3]; peptidomimetic concentration 0.9 µmol/mL, UV/VIS detection): 41 h
N=C(N)NCCCC[C@H](N)C(=O)NCCCC[C@H](N)C(=O)N[C@@H](CCNC(=O)CCCCCNC(=O)CN1CCN(CC(=O)O)CCN(CC(=O)O)CCN(CC(=O)O)CC1)C(=O)N1CCC[C@H]1C(=O)N[C@@H](CCCNC(=N)N)C(=O)O [^68Ga-2, [^68Ga]Lys(hArg)-Dab(Ahx-DOTA-Ga)-Pro-Arg, metal not drawn] (H-K(hArg)[Dab]([Ahx-DOTA])PR-OH)	−4.57 ± 0.05		
ATWLPPR [A7R]		5.9	
CC(C)C[C@H](NC(=O)[C@H](Cc1c[nH]c2ccccc12)NC(=O)[C@@H](NC(=O)[C@H](C)NC(=O)CCCCCNC(=O)CN1CCN(CC(=O)O)CCN(CC(=O)O)CCN(CC(=O)O)CC1)[C@@H](C)O)C(=O)N1CCC[C@H]1C(=O)N1CCC[C@H]1C(=O)N[C@@H](CCCNC(=N)N)C(=O)O [^68Ga-1, [^68Ga]Ga-DOTA-Ahx-A7R, metal not drawn] ({DOTA-Ahx}-ATWLPPR-OH)	−3.92 ± 0.03		
